Assay results reported in article doi:10.1101/2025.03.05.641625.

Legend:
[1] = molecular target: SARS-CoV-2 core RTC with nsp13.1 bound (RTC-nsp13.1) (SARS-CoV-2) (UniProt P0DTD1); assay: magnetic tweezers
[2] = molecular target: SARS-CoV-2 core replication-transcription complex (nsp12-polymerase, nsp7, nsp8) (SARS-CoV-2) (UniProt P0DTD1); assay: magnetic tweezers

Q: With “SARS-CoV-2 nsp13-helicase (wild type) (from UniProt P0DTD1 5325-5925) (enzyme)” as the substance, how does the Ka [1] read?
A: Its Ka is 4.6e+08 M⁻¹.

Q: And the Ka [2]?
A: Its Ka is 2.3e+08 M⁻¹.
